Measurements published in PMC9410871, “Structural basis of DNA packaging by a ring-type ATPase from an archetypal viral system” (Nucleic Acids Research, 2022).

How the values were obtained:
[1] = target: HK97 small terminase (TerS) protein GP1 (bacteriophage HK97); experiment: SEC-MALS; TerS in solution; conditions not told in the main text
[2] = target: HK97 small terminase (TerS) protein GP1 (bacteriophage HK97); experiment: native MS; TerS buffer-exchanged into 200 mM ammonium acetate, pH 7.5; modified Q-Exactive Orbitrap, positive ion mode, static nanospray
[3] = target: HK97 small terminase (TerS) protein GP1 (bacteriophage HK97); experiment: crystal structure; TerS 22 mg/mL in 300 mM potassium glutamate, 20 mM HEPES pH 7.0; reservoir 9% PEG 3350, 0.1 M succinic acid pH 7.0; three subunits in the asymmetric unit around a crystallographic 3-fold axis
[4] = target: the molecule itself; experiment: cryo-EM structure; packaging reaction with 125 nM prohead, 125 nM ScaI-linearized pUC18 DNA, 1 uM TerL, 2 uM TerS, vitrified about 30 s after 1 mM ATP; 5-fold symmetry applied to resolve TerL, 6-fold to resolve the portal

For “HK97 small terminase (TerS) protein GP1 (natural protein)”, the stoichiometry N [1] was 9, the stoichiometry N [2] was 9 and the stoichiometry N [3] was 9.

B1: HK97 portal (portal complex of the procapsid) (natural protein, bacteriophage HK97, UniProt P49859 1-424, looked up)
chain: MEEPKYTIDLRTNNGWWARLKSWFVGGRLVTPNQGSQTGPVSAHGYLGDSSINDERILQISTVWRCVSLISTLTACLPLDVFETDQNDNRKKVDLSNPLARLLRYSPNQYMTAQEFREAMTMQLCFYGNAYALVDRNSAGDVISLLPLQSANMDVKLVGKKVVYRYQRDSEYADFSQKEIFHLKGFGFTGLVGLSPIAFACKSAGVAVAMEDQQRDFFANGAKSPQILSTGEKVLTEQQRSQVEENFKEIAGGPVKKRLWILEAGFSTSAIGVTPQDAEMMASRKFQVSELARFFGVPPHLVGDVEKSTSWGSGIEQQNLGFLQYTLQPYISRWENSIQRWLIPSKDVGRLHAEHNLDGLLRGDSASRAAFMKAMGESGLRTINEMRRTDNMPPLPGGDVAMRQAQYVPITDLGTNKEPRNNGA
notes: Portal protein of bacteriophage HK97, within the procapsid; Seen only as part of the procapsid m4; source: E. coli 594 infected with HK97 amber mutant amC2; within purified procapsids; copies: 12
B1 was tested, and the “stoichiometry N” value [4] was 12.
